{"source": "patent US6991794B1", "about": "“Progenitor cell preservation factors and methods for and products of their use” (ImClone Systems Incorporated, priority 1997, dated 2006)", "molecules": {"B1": {"name": "Pv-FRIL: FRIL family mannose-binding lectin from Phaseolus vulgaris (red kidney bean), SEQ ID NO: 6 (protein)", "chain": "AQSLSFNFTKFDLDQKDLIFQGDATSTNNVLQLTKLDSGGNPVGASVGRVLFSAPFHLWENSMAVSSFETNLTIQISTPHPYYAADGFAFFLAPHDTVIPPNSWGKFLGLYSNVFRNSPTSENQSFGDVNTDSRVVAVEFDTFPNANIDPNYRHIGIDVNSIKSKETARWEWQNGKTATARISYNSASKKSTVTTFYPGMEVVALSHDVDLHAELPEWVRVGLSASTGEEKQKNTIISWSFTSSLKNNEVKEPKEDMYIANVVRSYTWINDVLSYISNKMYDALNNNHKYVRCSTCMLFMKKK"}}, "biological_target": "T1, murine extracellular domain of the Flt3 receptor fused to the transmembrane and intracellular domains of the human Fms (UniProt P07333+Q00342, A795S/A899S/C564L/C654D/C793H/C831G/D601N/D652H/D673E/D898N/DEL545-556/DEL576-597/DEL711-780/E609N/E612Q/E649S/E789R/E803A/E806A/E865D/F571P/F692T/F788L/F807S/G637D/G866C/H565Y/H671Q/H824N/I560L/I563L/I633L/I640L/I867V/I870V/INS558VACMSIMALLLL/INS573QVRWKII/INS599GNSYTFIDPTQLP/INS709AMLGPSLSPGQDPEGGVDYKNIHLEKKYVRRDSGFSSQGVDTYVEMRPVSTSSNDSFSEQDLD/K569Q/K650T/K800Q/K826H/K871Q/L602E/L684H/L690V/L783G/L815V/L840M/L863I/M626V/M665I/N627E/N784R/N900K/P896L/Q570K/Q641K/R572K/R624K/R708A/R848K/S619A/S634G/S639V/S653A/S685G/S706R/S809N/S841N/S844N/T636E/T667S/T787E/V561L/V616T/V638A/V785P/V811I/V822L/V828A/V846I/V889L/Y631F/Y689L/Y703F/Y796S)", "T1 construct": "consisting of the murine extracellular domain of the Flt3 receptor fused to the transmembrane and intracellular domains of the human Fms; expressed in transfected cells; host or cells: NIH 3T3 (mFlt3/Fms 3T3 cell line, provided by Dr. Ihor Lemischka)", "T1 sequence (Q00342+P07333 with tags, fused parts or gaps Q00342:DEL545-556/Q00342:INS558VACMSIMALLLL/Q00342:I560L/Q00342:V561L/Q00342:I563L/Q00342:C564L/Q00342:H565Y/Q00342:K569Q/Q00342:Q570K/Q00342:F571P/Q00342:R572K/Q00342:INS573QVRWKII/Q00342:DEL576-597/Q00342:INS599GNSYTFIDPTQLP/Q00342:D601N/Q00342:L602E/Q00342:E609N/Q00342:E612Q/Q00342:V616T/Q00342:S619A/Q00342:R624K/Q00342:M626V/Q00342:N627E/Q00342:Y631F/Q00342:I633L/Q00342:S634G/Q00342:T636E/Q00342:G637D/Q00342:V638A/Q00342:S639V/Q00342:I640L/Q00342:Q641K/Q00342:E649S/Q00342:K650T/Q00342:D652H/Q00342:S653A/Q00342:C654D/Q00342:M665I/Q00342:T667S/Q00342:H671Q/Q00342:D673E/Q00342:L684H/Q00342:S685G/Q00342:Y689L/Q00342:L690V/Q00342:F692T/Q00342:Y703F/Q00342:S706R/Q00342:R708A/Q00342:INS709AMLGPSLSPGQDPEGGVDYKNIHLEKKYVRRDSGFSSQGVDTYVEMRPVSTSSNDSFSEQDLD/Q00342:DEL711-780/Q00342:L783G/Q00342:N784R/Q00342:V785P/Q00342:T787E/Q00342:F788L/Q00342:E789R/Q00342:C793H/Q00342:A795S/Q00342:Y796S/Q00342:K800Q/Q00342:E803A/Q00342:E806A/Q00342:F807S/Q00342:S809N/Q00342:V811I/Q00342:L815V/Q00342:V822L/Q00342:H824N/Q00342:K826H/Q00342:V828A/Q00342:C831G/Q00342:L840M/Q00342:S841N/Q00342:S844N/Q00342:V846I/Q00342:R848K/Q00342:L863I/Q00342:E865D/Q00342:G866C/Q00342:I867V/Q00342:I870V/Q00342:K871Q/Q00342:V889L/Q00342:P896L/Q00342:D898N/Q00342:A899S/Q00342:N900K)": "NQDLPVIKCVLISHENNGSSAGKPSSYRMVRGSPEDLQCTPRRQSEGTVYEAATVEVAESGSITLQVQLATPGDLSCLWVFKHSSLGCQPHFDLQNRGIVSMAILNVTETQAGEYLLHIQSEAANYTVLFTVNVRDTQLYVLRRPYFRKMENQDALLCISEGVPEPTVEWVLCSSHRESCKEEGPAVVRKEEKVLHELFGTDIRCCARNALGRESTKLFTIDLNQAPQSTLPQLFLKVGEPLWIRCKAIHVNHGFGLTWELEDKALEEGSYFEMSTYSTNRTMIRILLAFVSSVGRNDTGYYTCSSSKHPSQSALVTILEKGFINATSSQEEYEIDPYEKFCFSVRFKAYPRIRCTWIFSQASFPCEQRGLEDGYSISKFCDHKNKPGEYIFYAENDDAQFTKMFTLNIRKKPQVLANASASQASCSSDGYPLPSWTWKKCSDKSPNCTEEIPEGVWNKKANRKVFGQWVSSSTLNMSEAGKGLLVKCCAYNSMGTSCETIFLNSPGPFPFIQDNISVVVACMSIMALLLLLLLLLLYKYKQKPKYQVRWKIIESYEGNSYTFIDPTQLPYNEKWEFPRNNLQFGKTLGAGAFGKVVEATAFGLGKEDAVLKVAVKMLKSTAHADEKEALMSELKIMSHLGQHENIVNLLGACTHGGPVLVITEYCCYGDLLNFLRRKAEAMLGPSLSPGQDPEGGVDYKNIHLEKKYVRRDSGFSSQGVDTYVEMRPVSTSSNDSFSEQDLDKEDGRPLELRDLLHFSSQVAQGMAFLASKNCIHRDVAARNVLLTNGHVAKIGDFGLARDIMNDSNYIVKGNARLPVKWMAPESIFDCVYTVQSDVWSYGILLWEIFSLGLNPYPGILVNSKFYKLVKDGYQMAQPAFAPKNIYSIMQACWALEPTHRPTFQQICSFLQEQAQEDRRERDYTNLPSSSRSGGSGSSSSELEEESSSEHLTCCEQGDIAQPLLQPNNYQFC", "test": "mFlt3/Fms 3T3 biological screening assay (XTT)", "assay_type": "cell-based", "description": "A biological screening assay to search for novel stimulators of the Flt3 receptor was developed using NIH 3T3 cells transfected with expression vectors containing cDNA of murine and human Flt3 and the related Fms receptor. The mFlt3/Fms 3T3 cell line is a 3T3 cell line transfected with nucleic acid encoding a fusion protein consisting of the murine extracellular domain of the Flt3 receptor fused to the transmembrane and intracellular domains of the human Fms (provided by Dr. Ihor Lemischka, Princeton University, Princeton, N.J.). The Stk 3T3 cell line is a 3T3 cell line transfected with the full-length human Flt3 receptor (provided by Dr. Donald Small, Johns Hopkins University, Baltimore, Md.). The human FMS 3T3 cell line is a 3T3 cell line transfected with the full-length human Fms receptor (provided by Dr. Charles Sherr, Saint Jude Children's Research Hospital, Memphis, Tenn. Parent 3T3 cells were purchased from American Type Culture Collection (“ATCC”; Manassas, Va.). Receptor-transfected cells contained Neo resistance genes and were maintained in medium containing 750 µg/ml of G418 (Life Technologies, Rockville, Md.).\nTo create factor-dependence for receptor-transfected 3T3 cells, growth conditions were compromised to permit only ligands to rescue cells from death. To do this, 3T3 cell lines were assayed in 96 well plates (Becton Dickinson Labware, Lincoln Park, N.J.) containing 3,000 cells in 100 μL of serum-free medium consisting of 10% AIMV (Life Technologies) and 90% DMEM. In each experiment, samples were serially diluted two-fold across rows starting at a 1:10 dilution. Viable cells were quantitated after 3-5 days by XTT (2,3-bis[Methoxy-4-nitro-5sulfophenyl]-2H-tetrazolium-5 carboxanilide inner salt) (Sigma, St. Louis, Mo.) (Roehm et al., supra). Relative activity (units/ml) and specific activity (units/mg) are defined as the reciprocal dilution at which half-maximal stimulation of cells was detected.", "note": "Where two headings read alike, the source gives them in different places."}
{"molecule": "B1", "values": [{"measurement": "response of mFlt3/Fms 3T3 cells", "value": "responded in a dose dependent manner"}, {"measurement": "response of mFlt3/Fms 3T3 cells", "setting": "presence of rhIL1", "value": "respond to FRIL in the presence of rhIL1"}]}
